The data set in a line: yeast display, Sf9 membrane polyspecificity reagent, FACS + sequencing; frameworks hold sequencing errors. The gist of the method:
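After 36–48 hours of galactose induction, yeast (Saccharomyces cerevisiae BJ5465) displaying a synthetic nanobody library were stained at 4 °C for 1 hour with 10% biotinylated, detergent-solubilized Sf9 membrane reagent. Streptavidin microbeads enriched the stained cells before FACS sorting into low and high (top ~1%) gates on anti-HA and streptavidin fluorescence. Each clone's polyreactivity label reflects its gate of origin.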
Turning to “QVQLVESGGGLVQAGGSLRLSCAASGSTFGVNAMGWYRQAPGKERELVAVITRSGGSTYYADSVKGRFTISRDNAKNTVYLQMNSLKPEDTAVYYCATSGVVDWGQGTQVTVSS”, the “polyreactivity (PSR sort gate)” value was “low polyreactivity”.

As for “QVQLVESGGGLVQAGGSLRLSCAASGSTFGVYAMGWYREAPGKERELVAAINKSGTRTYYADSVKGRFTISRDNAKNTVYLQMNSLKPEDTAVYYCAADQGTYGYGGFYYWGQGTQVTVSS”, the “polyreactivity (PSR sort gate)” value is on record as “high polyreactivity”.

Turning to “QVQLVESGGGLVQAGGSLRLSCAASGSTFGVYAMGWYRQAPGKEREFVAAITSSSGSTYYADSVKGRFTISRDNAKNTVYLQMNSLKPEDTAVYYCNVQGWTRSDAGRYDNMDYWGQGTQVTVSS”, the “polyreactivity (PSR sort gate)” value was “low polyreactivity”.

Turning to “QVQLVESGGGLVQAGGSLRLSCAASGSTFGVYDMGWYRQAPGKERELVAAITGNGGRTYYADSVKGRFTISRDNAKNTVYLQMNSLKPEDTAVYYCNARVKRYVYWPYDYWGQGTQVTVSS”, the “polyreactivity (PSR sort gate)” value was “high polyreactivity”.

For the sequence “QVQLVESGGGLVQAGGSLRLSCAASGSTFGWYAMGGYRQAPGKERELVAAISSGGSTYYADSVKGRFTISRDHAKYTVYLQMNSLKPEDTAVYYCAADIGYYYRYDYWGQGTQVTVSS”, the “polyreactivity (PSR sort gate)” value was “low polyreactivity”.

For the sequence “QVQLVESGGGLVQAGGSLRLSCAASGSTFGWYAMGLYRQAPGKERELVATISSGGSTYYADSVKGRFTISRDNAKNTVYLQMNSLKPEDTAVYYCAADYWTYEYPGYDYWGQGTQVTVSS”, the “polyreactivity (PSR sort gate)” value is “low polyreactivity”.

As for “QVQLVESGGGLVQAGGSLRLSCAASGSTFGWYAMGWYRQAPGKERELVAAISTSGNTYYADSVKGRFTISRDNAKNTVYLHMNRLKPEDTAVSYCAKYVNPDHDYWGQGTQVTVSS”, the “polyreactivity (PSR sort gate)” value is on record as “low polyreactivity”.

With “QVQLVESGGGLVQAGGSLRLSCAASGSTFGWYTMGWYRQAPGKERELVAAITSRGTRTSYADSVKGRFTISRDNAKNTVYLQMNSLKPEDTAVYYCAARVFRGLGEYYWGQGTQVTVSS”, the “polyreactivity (PSR sort gate)” value was “high polyreactivity”.

“QVQLVESGGGLVQAGGSLRLSCAASGSTFGYNAMGWYRQAPGKEREFVASIDARGTSTYYADSVKGRFTISRDNAKNTVYLQMNSLKPEYTAVYYCAADAEFTWSTVRLGWIYIWYEYWGQGTQVTVSS”: the “polyreactivity (PSR sort gate)” value is reported as “low polyreactivity”.

Regarding “QVQLVESGGGLVQAGGSLRLSCAASGSTFGYNAMGWYRQAPGKEREFVATIRYSGDRTYYADSVKGRFTISRDNAKNTVYLQMNSLKPEDTAVYYCAADLYYNSYGRYGRYYYWGQGTQVTVSS”, the “polyreactivity (PSR sort gate)” value is on record as “high polyreactivity”.

As for “QVQLVESGGGLVQAGGSLRLSCAASGSTFGYNAMGWYRQAPGKERELVAAISSDGSTNYADSVKGRFTISRDNSKNTVYLQMNSLKPEDTAVYYCAADDNGAWVRMDYWGHGTQVTVSS”, the “polyreactivity (PSR sort gate)” value is recorded as “low polyreactivity”.

In the case of “QVQLVESGGGLVQAGGSLRLSCAASGSTFGYNAMGWYRQAPGKERELVAAISWRGGNTYYADSVKGRFTISRDNAKNTVYLQMNSLKPEDTAVYYCNKVWPRYYVHGGSRVPEYDYWGQGTQVTVSS”, the “polyreactivity (PSR sort gate)” value is recorded as “high polyreactivity”.

In the case of “QVQLVESGGGLVQAGGSLRLSCAASGSTFGYNAMGWYRQAPGKERELVAAISYIGGSTYYADSVKGRFTISRDNAKNTVYLQMNSLKPEDTAVYYCNAAVRYYDRTVSPVKFDYWGQGTQVTVSS”, the “polyreactivity (PSR sort gate)” value is reported as “high polyreactivity”.

With “QVQLVESGGGLVQAGGSLRLSCAASGSTFGYNDMGWYRQAPGKERELVAAISVSDSSTYYADSVKGRFTISRDNAKNTVYLQMNSLKPEDTAVYYCAAYIYYNYSRQYWYDYWGQGTQVTVSS”, the “polyreactivity (PSR sort gate)” value is “low polyreactivity”.

In the case of “QVQLVESGGGLVQAGGSLRLSCAASGSTFGYNDMGWYRQAPGKERELVAAISVSDSSTYYADSVKGRFTISRDYAKNTVYLQMNCLKPEDTAVYYCAAEYYVGFTYRYEYWGQGTQVTVSS”, the “polyreactivity (PSR sort gate)” value was “low polyreactivity”.

For the sequence “QVQLVESGGGLVQAGGSLRLSCAASGSTFGYNTMGWYRQAPGNERELVAAITGTGRTNYADSVKGRFTISRDNAKNTVYLQMNRLNPEDTAVYYCNARQAGTRYKYGYYGRYYWGQGTQVTVSS”, the “polyreactivity (PSR sort gate)” value is reported as “high polyreactivity”.

For “QVQLVESGGGLVQAGGSLRLSCAASGSTFGYYAMGWNRQAPGKERELVATITWSGGSTNYADSVKGRFTISRDNAKNTVYLQMYSLKPEDTAVYYCAADLKYWYFGLAFIEVDYWGQGTQVTVSS”, the “polyreactivity (PSR sort gate)” value is “low polyreactivity”.

For “QVQLVESGGGLVQAGGSLRLSCAASGSTFGYYAMGWYRQAPGKERELVAAISDGGSTYYADSVKGRFTISRDNAKNTVYLQMNSLKPEDTAVYYCAAEYLAYDWYEYYYWGQGTQVTVSS”, the “polyreactivity (PSR sort gate)” value was “high polyreactivity”.

For “QVQLVESGGGLVQAGGSLRLSCAASGSTFGYYAMGWYRQAPGKERELVAAITSGGSKKYADSVKGRFTISRDNAKNTVYLQMNSLKPEDTAVYYCATSRYFGYGYWGQGTQVTVSS”, the “polyreactivity (PSR sort gate)” value is on record as “low polyreactivity”.

With “QVQLVESGGGLVQAGGSLRLSCAASGSTFGYYAMGWYRQAPGKERELVAGITSGGSTYYADSVKGRFTISRDNAKNTVYLQMNSLKPEDTAVYYCAKPVRHYRGRYFKYDYWGQGTQVTVSS”, the “polyreactivity (PSR sort gate)” value is “high polyreactivity”.

In the case of “QVQLVESGGGLVQAGGSLRLSCAASGSTFGYYAMGWYRQAPGKERELVAVIRRGGSTNYADSVKGRFTISRDNAKNTVYLQMNSLKPEDTAVYYCNKYRYAGITAEFYYWGQGTQVTVSS”, the “polyreactivity (PSR sort gate)” value is listed as “high polyreactivity”.

Take “QVQLVESGGGLVQAGGSLRLSCAASGSTFGYYAMGWYRQAPGQERELVAAITSGGSTKYADSVKGRFTISRDNAKNTVYLQLISLKPEDNAVYYCATSRYFGYGYWGQGTQVTVSS”: the “polyreactivity (PSR sort gate)” value is “low polyreactivity”.

As for “QVQLVESGGGLVQAGGSLRLSCAASGSTFGYYTMGWYRQAPGKERELVAAISWSGGRTYYADSVKGRFTISRDNAKNTVYLQMNSLKPEDTAVYYCAAPRYGGWRSYQKYDYWGQGTQVTVSS”, the “polyreactivity (PSR sort gate)” value is given as “high polyreactivity”.

In the case of “QVQLVESGGGLVQAGGSLRLSCAASGSTFGYYTMGWYRQAPGKERELVAAITKSGGGTYYADSVKGRFTISRDNAKNTVYLQMNSLKPEDTAVYYCADYSRFTSDYWGQGTQVTVSS”, the “polyreactivity (PSR sort gate)” value is reported as “high polyreactivity”.

Take “QVQLVESGGGLVQAGGSLRLSCAASGSTFGYYTMGWYRQSPGKERELVAAITWRGGRTYYADSVKGRFTISRDNEKNTVYLQMNSLKPEDTAVYYCAARSTVVMDYWGQGTKVTVSS”: the “polyreactivity (PSR sort gate)” value is reported as “high polyreactivity”.

For the sequence “QVQLVESGGGLVQAGGSLRLSCAASGSTFHDNAMGWYIQAPGKERELVAAISSGGRTNYADSVKGRFTISRDNAKNTVYLQMNSLKPEDTAVYYCAASFRRWYFYDRHEYGYWGQGTQVTVSS”, the “polyreactivity (PSR sort gate)” value is “low polyreactivity”.

For “QVQLVESGGGLVQAGGSLRLSCAASGSTFHDYAMGWYRQAPGKEREFVAAISVRGGSTYYADSVKGRFTISRDNAKNTVYLQMNSLKPEDTAVYYCNKLSSDSYNYWGQGTQVTVSS”, the “polyreactivity (PSR sort gate)” value is “high polyreactivity”.

As for “QVQLVESGGGLVQAGGSLRLSCAASGSTFHFYAMGWYRQAHGKERELVASITSRGGNTHYADSVKGRFTISRDNAKNTVYFQMNSLKPEDTAVYYCAARKGTSWKAHFRFDYWGQGTQVTVSS”, the “polyreactivity (PSR sort gate)” value is on record as “low polyreactivity”.

Regarding “QVQLVESGGGLVQAGGSLRLSCAASGSTFHLYAMGWYRQAPGKERELVADIDLSGGSTYYADSVKGRFTISRDNAKNTVYLQMNSLKPEDTAVYYCAADHVSSLGFDYWGQGTQVTVSS”, the “polyreactivity (PSR sort gate)” value is reported as “low polyreactivity”.

For “QVQLVESGGGLVQAGGSLRLSCAASGSTFHRKAMGWYRQAPGKERELVASISIGGSTNYADSVKGRFTISRDNAKNTVYLQMNSLKPEDTAVYYCATEPNPRRPRVDYDYWGQGTQVTVSS”, the “polyreactivity (PSR sort gate)” value is reported as “low polyreactivity”.

As for “QVQLVESGGGLVQAGGSLRLSCAASGSTFHRNAMGWYRPAQGKERELVASISIGGSTNYADSVKGRVTISRDNAKNTVYLQMNSLKPEDTAVYYCATEPNPRRPRVDYDYWGQGTQVTVSS”, the “polyreactivity (PSR sort gate)” value was “low polyreactivity”.

Regarding “QVQLVESGGGLVQAGGSLRLSCAASGSTFHRNGMGWYRQAPGKERELVAAISRTGGSTYYADSEKGRFTISRDNAKNTVYLQMNSLKPEDTAVYYCAAQGNNYVRHTYGYWGQGTQVTVSS”, the “polyreactivity (PSR sort gate)” value was “low polyreactivity”.

Take “QVQLVESGGGLVQAGGSLRLSCAASGSTFHRYAMGWYRQAAGKERELVATITSRGGITYYADSVKGRFTISRDNAKNTVYLQMNSLKPEDTAVYYCNTEDGTTPQYGYDQGMYYWGQGTQVTVSS”: the “polyreactivity (PSR sort gate)” value is given as “low polyreactivity”.

Turning to “QVQLVESGGGLVQAGGSLRLSCAASGSTFHRYTMGWYRQAPGKERELVAAISSGGRTYYADSVKGRFTISRDNAKNTVYLQKNSLKPEDTAVYYCNSRYPRQYWGGYDYWGQGTQVTVSS”, the “polyreactivity (PSR sort gate)” value is given as “high polyreactivity”.

As for “QVQLVESGGGLVQAGGSLRLSCAASGSTFHRYVMGWYRQAPGKERELVAVINSTGGSTYYADSVKGRFTISRDNAKNTVYLQMNSLKPEDNAVYYCARVTRRGPGYTTLYSRYDYWGQGTQVTVSS”, the “polyreactivity (PSR sort gate)” value is recorded as “low polyreactivity”.

On to “QVQLVESGGGLVQAGGSLRLSCAASGSTFHSYAMGRYRQAPGKEREFVAAITIRGGSTYYADSVKGRFTISRDNAKNTVYLQMNSLKPEDTAVYYCAALVWGSYARWRYYWGQGTQVTVSS”, for which the “polyreactivity (PSR sort gate)” value is listed as “high polyreactivity”.

For the sequence “QVQLVESGGGLVQAGGSLRLSCAASGSTFHTYTMGWYRPAPGKERELVAGISRSGGSTYYAESVKGRFTISRDNAKNTVYLQMNSLKPEATAVYYCNALSSKTDTYDYWGQGTQVTVSS”, the “polyreactivity (PSR sort gate)” value is reported as “high polyreactivity”.

On to “QVQLVESGGGLVQAGGSLRLSCAASGSTFHWYVMGWYRQAPAKERELVAAITWSGGSTYYADSVKGRFTISRDNAKNTVYLQMNSLKPEDTAVYYCNAVFWIWNAGYDYWGQGTQVTVSS”, for which the “polyreactivity (PSR sort gate)” value is recorded as “low polyreactivity”.

On to “QVQLVESGGGLVQAGGSLRLSCAASGSTFIFNTMGWYRQAPGKERELVASITGDGRTNYADSVKGRFTISRDNAKNTVYLQMNSLKPEDTAVYYCAADGYDQYPLWAPPGDYWGQGTQVTVSS”, for which the “polyreactivity (PSR sort gate)” value is “low polyreactivity”.

As for “QVQLVESGGGLVQAGGSLRLSCAASGSTFIFYVMGWNRQAPGKERELVASITGNGTSTYYADSVKGRFTISRDNAKNTVYLQMNSLKPEDTAVYYCNAVFSPSRYDYWGQGTQVTVSS”, the “polyreactivity (PSR sort gate)” value is on record as “low polyreactivity”.

Turning to “QVQLVESGGGLVQAGGSLRLSCAASGSTFIIYAMGWYRQAPGKERELVAAISWSGGSTYYADSVKGRFTISRDNAKNTVYLQMNSLKPEDTAVYYCNAARYYTPWRTWYDYWGQGTQVTVSS”, the “polyreactivity (PSR sort gate)” value was “high polyreactivity”.

The record behind these values is the nanobody polyreactivity screen of Harvey et al. (2022).
